The target in this assay is T1, streptavidin (Streptomyces avidinii, UniProt P22629 37-163).
T1 construct: also called streptavidin-coated beads; streptavidin-coated magnetic beads
As to the kind of experiment: direct binding assay with plate-immobilized streptavidin and HRP-conjugated anti-FLAG antibody.

T1 sequence (P22629 37-163, tags left off): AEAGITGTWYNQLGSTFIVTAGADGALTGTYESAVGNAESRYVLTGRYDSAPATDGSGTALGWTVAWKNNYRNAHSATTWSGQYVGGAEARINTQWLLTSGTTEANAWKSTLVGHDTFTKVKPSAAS
Procedure: For the Keap1 binding assay, Keap1 was immobilized on microtiter plates by incubating 100 μL of a 4 μM protein solution in PBS buffer overnight at 4° C., followed by washing (3×150 μL of PBS with 0.5% Tween-20) and blocking with 0.5% bovine serum albumin in PBS for 1.5 h at room temperature. After washing, each well was incubated with 100 μL of purified FLAG-tagged peptide at varying concentrations for 1 hour at room temperature. After washing three times with wash buffer, each well was incubated with 100 μL of 1:2500 dilution of HRP-conjugate mouse anti-FLAG polyclonal antibody (Sigma-Aldrich) for 1 hour at room temperature. After three washing step with wash buffer, 100 μL of 2.2 mM o-phenylenediamine dihydrochloride, 4.2 mM urea hydrogen peroxide, 100 mM dibasic sodium phosphate, and 50 mM sodium citrate, pH 5.0, were added to each well, followed by measurement of the absorbance at 450 nm after 10-20 min using a Tecan Infinite 1000 plate reader. Equilibrium dissociation constants (KD) were determined by fitting the dose-response curves to a 1:1 binding isotherm equation via nonlinear regression using SigmaPlot. Mean values and standard deviations were calculated from experiments performed in triplicate.

B1: CBD alone (other)
chain: MKIEEGKLTNPGVSAWQVNTAYTAGQLVTYNGKTYKCLQPHTSLAGWEPSNVPALWQLQNNGNNGLELRHG
As for B1, the binding result was “no binding”.

The values above are taken from US20200299675A1 (UNIVERSITY OF ROCHESTER, published 2020).
